Patent publication US12643935B2, “PD-L1 binding peptides” (UNIVERSITY OF SOUTHERN CALIFORNIA, priority 2020, dated 2026)
Blank lines part the entries; values can stand above or below the substance they belong to. Where no end group is shown, it is not given here. [ ]: non-standard residue; d: D form. Pra = C#CC[C@H](N)C(=O)O

Experiments:
Type in all cases: cell-based
[1] = target: T1, hPD-L1 expressed on the surface of Chinese hamster ovary (CHO) cells (CHO-hPD-L1) (Homo sapiens, UniProt Q9NZQ7); assay: Antibody competition by flow cytometry on CHO-hPD-L1 cells; details: pre-incubation 30 min 4° C., 0-20 μM; SPAM effect at 20 μM; 1 nM Atezolizumab, 10 nM Avelumab
T1 construct: expressed in transfected cells; host or cells: CHO
Excerpt: (§1) To do this, we measured SPAM peptide inhibition of anti-PD-L1 antibody binding to hPD-L1 expressed on the surface of Chinese hamster ovary (CHO) cells (CHO-hPD-L1). […] Cells were washed again and analyzed by flow cytometry (FIG. 5B-C).
Cells were then washed three times with cold serum free DMEM. Cells were subsequently processed by flow cytometry with a BD FACSCalibur system using the FL1 channel. FlowJo v10.1 was used to gate to the major population and median FL1 fluorescence reported.

[2] = target: T2, CHO-mPD-L1 cells which express mPD-L1 (Mus musculus, UniProt Q9EP73); assay: Antibody competition by flow cytometry on CHO-mPD-L1 cells; details: pre-treatment 0-20 μM, 50 nM antibody
T2 construct: expressed in transfected cells; host or cells: CHO
Procedure: We performed similar experiments with CHO-mPD-L1 cells which express mPD-L1 to determine if this effect was specific to hPD-L1 expression. We have developed two cross-reactive anti-hPD-L1/mPD-L1 antibodies, 16373 and 16377. These antibodies were labeled with Fluorescein, titrated against CHO-hPD-L1 and CHO-mPD-L1 cells (FIG. 12B-C) and subjected to competition experiments as described above.
The cells were washed once with cold serum free DMEM and incubated with 1 nM FAM-Atezolizumab, 10 nM FAM-Avelumab, 50 nM FAM-16373, or 50 nM FAM-16377 in serum free DMEM at 4° C. for 30 min. Cells were then washed three times with cold serum free DMEM. Cells were subsequently processed by flow cytometry with a BD FACSCalibur system using the FL1 channel. FlowJo v10.1 was used to gate to the major population and median FL1 fluorescence reported.

[3] = target: T1, hPD-L1 expressed on the surface of Chinese hamster ovary (CHO) cells (CHO-hPD-L1); assay: Antibody titration by flow cytometry on CHO-hPD-L1 cells; details: 4° C., read-out: KD of Fluorescein-labeled antibody on CHO-hPD-L1
Excerpt: as §1

T1 sequence (Q9NZQ7 19-290): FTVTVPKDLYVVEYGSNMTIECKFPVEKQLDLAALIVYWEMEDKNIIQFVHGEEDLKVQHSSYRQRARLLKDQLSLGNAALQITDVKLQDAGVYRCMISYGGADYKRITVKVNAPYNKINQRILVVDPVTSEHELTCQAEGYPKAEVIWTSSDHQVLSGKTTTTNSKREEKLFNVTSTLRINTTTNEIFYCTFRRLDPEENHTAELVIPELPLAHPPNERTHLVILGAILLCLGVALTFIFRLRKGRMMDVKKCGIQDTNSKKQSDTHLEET
T2 sequence (Q9EP73 19-290): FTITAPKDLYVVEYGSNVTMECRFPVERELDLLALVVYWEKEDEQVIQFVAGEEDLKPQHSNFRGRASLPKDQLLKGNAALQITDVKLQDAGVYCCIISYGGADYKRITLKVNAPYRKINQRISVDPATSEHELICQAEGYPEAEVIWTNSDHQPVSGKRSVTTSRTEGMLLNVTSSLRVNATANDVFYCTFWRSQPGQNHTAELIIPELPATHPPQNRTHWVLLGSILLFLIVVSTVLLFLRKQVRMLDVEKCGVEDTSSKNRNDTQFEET

Substance: YKLNLIHPHIFLMDWIFASG-Pra (YKLNLIHPHIFLMDWIFASG[Pra]-NH2; N-terminus assumed; SMILES C#CC[C@H](NC(=O)CNC(=O)[C@H](CO)NC(=O)[C@H](C)NC(=O)[C@H](Cc1ccccc1)NC(=O)[C@@H](NC(=O)[C@H](Cc1c[nH]c2ccccc12)NC(=O)[C@H](CC(=O)O)NC(=O)[C@H](CCSC)NC(=O)[C@H](CC(C)C)NC(=O)[C@H](Cc1ccccc1)NC(=O)[C@@H](NC(=O)[C@H](Cc1c[nH]cn1)NC(=O)[C@@H]1CCCN1C(=O)[C@H](Cc1c[nH]cn1)NC(=O)[C@@H](NC(=O)[C@H](CC(C)C)NC(=O)[C@H](CC(N)=O)NC(=O)[C@H](CC(C)C)NC(=O)[C@H](CCCCN)NC(=O)[C@@H](N)Cc1ccc(O)cc1)[C@@H](C)CC)[C@@H](C)CC)[C@@H](C)CC)C(N)=O) [SPAM-scramble, control scrambled peptide, reference compound]
Fluorescein-Atezolizumab and Fluorescein-Avelumab binding to CHO-hPD-L1 after pre-incubation [1]: not observed

blocking of Fluorescein-16373 and Fluorescein-16377 in CHO-mPD-L1 cells [2]: blocking was absent
Substance: Cyclo[(AcTyr)(NMeAla)NPHL(Hyp)WS(Trp(Me))(NMeNle) (NMeNle)(Orn)C]-Gly-NH2 (XXNPHLXWSXXXXCG; N-methyl; non-natural residues; cyclised or stapled) [WL-12]

Kd [3]: 200 pM
Substance: Atezolizumab: hPD-L1 specific monoclonal antibody
